Literature values, collected in publication PMC3951123.

Tests used:
Assay in all cases: SPR
[1] = target: Syk linker B peptide SykLB-pYpY (Mus musculus) (UniProt P48025)
[2] = target: Syk linker B peptide SykLB-pYY (Mus musculus) (UniProt P48025)
[3] = target: Syk linker B peptide SykLB-YpY (Mus musculus) (UniProt P48025)

Kd [1]: 7.4 µM | Kd [2]: 14.6 µM | Kd [3]: 71 µM
Substance: Vav1 SH2 (from UniProt P15498)
